Data published in patent US12281340B2, “Method of producing N-acyl-amino group-containing compound” (AJINOMOTO CO., INC., priority 2018, dated 2025).

Columns and labels:
Type in all cases: biochemical
Design in all cases: key: +: Detected; −: Not detected
[1] = Synthesis of N-caprinoylamino acid using purified acylamino acid synthetase, UPLC-MS detection; conditions: +ATP
Protocol: 2.0 mL of a reaction solution containing 50 mM Tris-HCl, 5 mM amino acid, 5 mM sodium caprate, 10 mM ATP, 10 mM MgCl2, 1 mM DTT, 50 μg of the purified enzyme, pH 8.0 was incubated at 25° C. for 24 hours. After completion of the reaction, 0.8 mL of a reaction stop solution (1% (v/v) phosphoric acid, 75% (v/v) methanol) was added, and the mixture was filtrated through a filter followed by being subjected to the UPLC-MS analysis to detect a signal of a molecular weight corresponding to an N-caprinoyl amino acid.
A UPLC-MS analysis condition is as follows.
(§1) Apparatus: ACQUITY UPLC (Waters)
• Column: ACQUITY UPLC BEH C18 1.7 2.1×100 mm Column (Waters) • Mobile phase A: 0.1% formic acid • Mobile phase B: acetonitrile Gradient
• Flow rate: 0.6 mL/min • Injection amount: 2 μL • Column temperature: 40° C. • Ionization method: ESI-negative
As a result of the UPLC-MS analysis, the signal of the molecular weight corresponding to the N-caprinoyl amino acid was confirmed in the reaction solution combining the enzyme and the amino acid shown in Table 3 below.

[2] = Synthesis of N-acylamino acids from various fatty acids using purified acylamino acid synthetase, UPLC-MS detection
Protocol: 0.1 mL of a reaction solution containing 50 mM Tris-HCl, 5 mM amino acid, 5 mM sodium fatty acid (3 mM of sodium palmitate or sodium stearate), 10 mM ATP, 10 mM MgCl2, 1 mM DTT, 200 μg/mL of the purified enzyme, pH 8.0 was shaken at 25° C. for 24 hours. When sodium palmitate or sodium stearate was used, methanol at a final concentration of 10% (v/v) was contained in the reaction solution. As the amino acid, L-Asp was used in AtGH3-6, OsGH3-8, AtGH3-5, AtGH3-12, L-Ile was used in AtJAR1, L-Ala was used in AtGH3-10, SsGH3, L-Glu was used in AtGH3-17, Gly was used in CfHP, L-Lys was used in PsIAAL, and L-Cys was used in PaHP. After completion of the reaction, 0.4 mL of the reaction stop solution (1% (v/v) phosphoric acid, 75% (v/v) methanol) was added, and the mixture was filtrated through the filter followed by being subjected to the UPLC-MS analysis to detect a signal of a molecular weight corresponding to the N-acylamino acid.
The condition for the UPLC-MS analysis is as follows.
as §1
Column: ACQUITY UPLC BEH C18 1.7 μm 2.1×100 mm Column (Waters), mobile phase A: 0.1% formic acid; mobile phase B: acetonitrile
• Flow rate: 0.6 mL/minute • Injection amount: 2 μL • Column temperature: 40° C. • Ionization method: ESI-negative
As a result of the UPLC-MS analysis, the signal of the molecular weight corresponding to the appropriate N-acylamino acid was confirmed in the reaction solution containing the enzyme in combination with sodium fatty acid shown in Table 7 below.

[3] = Synthesis of N-caprinoyl-amino acid derivative, N-caprinoyl-D-amino acid and N-caprinoyl-peptide using purified acylamino acid synthetase, UPLC-MS detection; conditions: +ATP
Protocol: 0.2 mL of a reaction solution containing 50 mM Tris-HCl, 5 mM amino acid derivative or D-amino acid or peptide, 5 mM sodium caprate, 10 mM ATP, 10 mM MgCl2, 1 mM DTT, 50 μg/mL of the purified enzyme, pH 8.0 was incubated at 25° C. for 24 hours. After completion of the reaction, 0.8 mL of the reaction stop solution (1% (v/v) phosphoric acid, 75% (v/v) methanol) was added, and the mixture was filtrated through the filter followed by being subjected to the UPLC-MS analysis to detect a signal of a molecular weight corresponding to an N-caprinoyl-amino acid derivative, an N-caprinoyl-amino acid or an N-caprinoyl-peptide. A condition for the UPLC-MS analysis is as described in Example 2.
As a result of the UPLC-MS analysis, the signal of the molecular weight corresponding to the N-caprinoyl-amino acid derivative, or N-caprinoyl-amino acid, or N-caprinoyl-peptide was confirmed in the reaction solution containing the enzyme in combination with the amino acid derivative or the D-amino acid or the peptide shown in Table 4 below.

signal of molecular weight corresponding to N-caprinoyl amino acid ([1]; substrates GABA and sodium caprate): + | signal of molecular weight corresponding to N-caprinoyl amino acid ([1]; substrates Gly and sodium caprate): + | signal of molecular weight corresponding to N-caprinoyl amino acid ([1]; substrates L-Ala and sodium caprate): + | signal of molecular weight corresponding to N-caprinoyl amino acid ([1]; substrates L-Arg and sodium caprate): + | signal of molecular weight corresponding to N-caprinoyl amino acid ([1]; substrates L-Asn and sodium caprate): + | signal of molecular weight corresponding to N-caprinoyl amino acid ([1]; substrates L-Asp and sodium caprate): + | signal of molecular weight corresponding to N-caprinoyl amino acid ([1]; substrates L-Cys and sodium caprate): − | signal of molecular weight corresponding to N-caprinoyl amino acid ([1]; substrates L-Gln and sodium caprate): + | signal of molecular weight corresponding to N-caprinoyl amino acid ([1]; substrates L-Glu and sodium caprate): − | signal of molecular weight corresponding to N-caprinoyl amino acid ([1]; substrates L-His and sodium caprate): + | signal of molecular weight corresponding to N-caprinoyl amino acid ([1]; substrates L-Ile and sodium caprate): + | signal of molecular weight corresponding to N-caprinoyl amino acid ([1]; substrates L-Leu and sodium caprate): + | signal of molecular weight corresponding to N-caprinoyl amino acid ([1]; substrates L-Lys and sodium caprate): + | signal of molecular weight corresponding to N-caprinoyl amino acid ([1]; substrates L-Met and sodium caprate): + | signal of molecular weight corresponding to N-caprinoyl amino acid ([1]; substrates L-Phe and sodium caprate): + | signal of molecular weight corresponding to N-caprinoyl amino acid ([1]; substrates L-Pro and sodium caprate): + | signal of molecular weight corresponding to N-caprinoyl amino acid ([1]; substrates L-Ser and sodium caprate): + | signal of molecular weight corresponding to N-caprinoyl amino acid ([1]; substrates L-Thr and sodium caprate): + | signal of molecular weight corresponding to N-caprinoyl amino acid ([1]; substrates L-Trp and sodium caprate): + | signal of molecular weight corresponding to N-caprinoyl amino acid ([1]; substrates L-Tyr and sodium caprate): + | signal of molecular weight corresponding to N-caprinoyl amino acid ([1]; substrates L-Val and sodium caprate): + | signal of molecular weight corresponding to N-caprinoyl amino acid ([1]; substrates β-Ala and sodium caprate): + | signal of molecular weight corresponding to N-acylamino acid ([2]; substrates L-Ala and Capric acid): + | signal of molecular weight corresponding to N-acylamino acid ([2]; substrates L-Ala and Caproic acid): + | signal of molecular weight corresponding to N-acylamino acid ([2]; substrates L-Ala and Caprylic acid): + | signal of molecular weight corresponding to N-acylamino acid ([2]; substrates L-Ala and Lauric acid): + | signal of molecular weight corresponding to N-acylamino acid ([2]; substrates L-Ala and Linoleic acid): − | signal of molecular weight corresponding to N-acylamino acid ([2]; substrates L-Ala and Palmitic acid): − | signal of molecular weight corresponding to N-acylamino acid ([2]; substrates L-Ala and myristic acid): + | signal of molecular weight corresponding to N-acylamino acid ([2]; substrates L-Lys and Capric acid): + | signal of molecular weight corresponding to N-acylamino acid ([2]; substrates L-Lys and Caproic acid): + | signal of molecular weight corresponding to N-acylamino acid ([2]; substrates L-Lys and Caprylic acid): + | signal of molecular weight corresponding to N-acylamino acid ([2]; substrates L-Lys and Lauric acid): + | signal of molecular weight corresponding to N-acylamino acid ([2]; substrates L-Lys and Linoleic acid): − | signal of molecular weight corresponding to N-acylamino acid ([2]; substrates L-Lys and Palmitic acid): + | signal of molecular weight corresponding to N-acylamino acid ([2]; substrates L-Lys and myristic acid): + | signal of molecular weight corresponding to N-caprinoyl compound ([3]; substrates Carnosine and sodium caprate): − | signal of molecular weight corresponding to N-caprinoyl compound ([3]; substrates D-Ala and sodium caprate): + | signal of molecular weight corresponding to N-caprinoyl compound ([3]; substrates D-Asp and sodium caprate): + | signal of molecular weight corresponding to N-caprinoyl compound ([3]; substrates D-Cys and sodium caprate): + | signal of molecular weight corresponding to N-caprinoyl compound ([3]; substrates D-Glu and sodium caprate): + | signal of molecular weight corresponding to N-caprinoyl compound ([3]; substrates D-Ile and sodium caprate): − | signal of molecular weight corresponding to N-caprinoyl compound ([3]; substrates D-Lys and sodium caprate): − | signal of molecular weight corresponding to N-caprinoyl compound ([3]; substrates L-Asp-L-Phe and sodium caprate): − | signal of molecular weight corresponding to N-caprinoyl compound ([3]; substrates L-Gly-L-Gly and sodium caprate): + | signal of molecular weight corresponding to N-caprinoyl compound ([3]; substrates Sarcosine and sodium caprate): − | signal of molecular weight corresponding to N-caprinoyl compound ([3]; substrates Taurine and sodium caprate): +
B1: AtGH3-10: GH3-10 from Arabidopsis thaliana, His-tagged (protein, listed as Arabidopsis thaliana)
chain: METVEAGHDDVIGWFEHVSENACKVQSETLRRILELNSGVEYLRKWLGTVDVEKMDDYTLETLFTSLVPIVSHADLDPYIQRIADGETSPLLTQEPITVLSLSSGTTEGRQKYVPFTRHSAQTTLQIFRLSAAYRSRFYPIREGGRILEFIYAGKEFKTLGGLTVGTATTHYYASEEFKTKQETTKSFTCSPQEVISGGDFGQCTYCHLLLGLHYSSQVEFVASAFSYTIVQAFSFFEEIWREICADIKEGNLSSRITLPKMRKAVLALIRPNPSLASHIEEICLELETNLGWFGLISKLWPNAKFISSIMTGSMLPYLNKLRHYAGGLPLVSADYGSTESWIGVNVDPHLPPEDVSFAVIPTFSYFEFIPLYRRQNQSDICIDGDFVEDKPVPLSQVKLGQEYELVLTTFTGLYRYRLGDVVEVTSFHKGTPKLSFIYRRKLILTINIDKNTEKDLQRVVDKASQLLSRSTRAEVVDFTSHADVIARPGHYVIYWEIRGEADDKALEECCREMDTAFVDYGYVVSRRMNSIGPLELRVVERGTFGKVAERCVGKCGGLNQFKTPRCTTNSVMLDILNDSTIKRFRSSAYD
modifications: His-tag
notes: GH3-10 from Arabidopsis thaliana, His-tagged
